We go through one substance from paper PMC2825244.

The assay deals with Chemokine receptor four (CXCR4) (human (endogenous in JJ)) (UniProt P61073).
Chain of UniProt P61073 (P61073 whole entry): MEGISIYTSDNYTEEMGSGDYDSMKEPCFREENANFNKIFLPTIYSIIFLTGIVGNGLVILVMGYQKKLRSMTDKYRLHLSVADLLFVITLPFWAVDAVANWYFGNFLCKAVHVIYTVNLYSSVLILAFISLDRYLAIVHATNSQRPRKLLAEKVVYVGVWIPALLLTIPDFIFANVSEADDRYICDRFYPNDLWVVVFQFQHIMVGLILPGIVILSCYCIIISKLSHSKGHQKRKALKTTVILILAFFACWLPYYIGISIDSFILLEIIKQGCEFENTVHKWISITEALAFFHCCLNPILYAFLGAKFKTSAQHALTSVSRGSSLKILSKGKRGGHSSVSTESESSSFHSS

“human recombinant SDF-1 (stromal cell derived factor one) (from UniProt P48061 22-93) (ligand)” registered an MMP1 mRNA (qRT-PCR, fold) in JJ cells in hypoxia with SDF1 10 ng/ml, against 9 fold by hypoxia alone; the SDF1 mediated increase was blocked by the CXCR4 inhibitor AMD3100 0.1 μM of 23 fold.
